# Patent US20250043022A1 (JIANGSU HENGRUI PHARMACEUTICALS, published 2025)
# Positions count from the first letter of the chain named.
# B1: PL-12 (bispecific antibody)
# chain 1: not shown
# chain 2: DIVLTQSPASLAVSPGQRATITCRASESVSIHGTHLMHWYQQKPGQPPKLLIYAASKLESGVPARFSGSGSGTDFTLTINPVEAEDTANYYCQQSFEDPLTFGQGTKLEIKRTVASGIPPKIECLPIDISIDEGKCLTVASAFTGEPTPEVTWSTGGRKIHSQEQGRFHIENTDDSTTLTIKDVQKQDGGLYTLTLRNEFGSDSATVNIHIRSI
# chain 3: not shown
# chain 4: not shown
# B2: PL-14 (bispecific antibody)
# chain 1: not shown
# chain 2: B1 chain 2 with C136V
# chain 3: not shown
# chain 4: not shown
# B3: PL-9 (bispecific antibody)
# chain 1: not shown
# chain 2: B1 chain 2 with R112G, T113G, V114G, A115G
# chain 3: not shown
# chain 4: not shown
# B4: PL-10 (bispecific antibody)
# chain 1: not shown
# chain 2: B1 chain 2 with R112G, T113G, V114G, A115G, C136V, A142C
# chain 3: not shown
# chain 4: not shown
# B5: PL-8 (bispecific antibody)
# chain 1: not shown
# chain 2: B1 chain 2 with R112G, T113G, V114G, A115G, C136V
# chain 3: not shown
# chain 4: not shown
# B6: PL-15 (bispecific antibody)
# chain 1: not shown
# chain 2: B1 chain 2
# chain 3: not shown
# chain 4: not shown
# B7: PL-1 (bispecific antibody)
# chain 1: not shown
# chain 2: B1 chain 2 with R112G, T113G, V114G, A115G, C136V, S176L, T180I
# chain 3: not shown
# chain 4: not shown
# B8: PL-19 (bispecific antibody)
# chain 1: not shown
# chain 2: B1 chain 2 with C136V, A142C
# chain 3: not shown
# chain 4: not shown
# B9: PL-7 (bispecific antibody)
# chain 1: not shown
# chain 2: B1 chain 2 with R112G, T113G, V114G, A115G, C136V, A142C
# chain 3: not shown
# chain 4: not shown
# B10: PL-17 (bispecific antibody)
# chain 1: not shown
# chain 2: B1 chain 2 with C136V
# chain 3: not shown
# chain 4: not shown
# B11: PL-5 (bispecific antibody)
# chain 1: not shown
# chain 2: B1 chain 2 with R112G, T113G, V114G, A115G, C136V
# chain 3: not shown
# chain 4: not shown
# B12: PL-3 (bispecific antibody)
# chain 1: not shown
# chain 2: B1 chain 2 with R112G, T113G, V114G, A115G
# chain 3: not shown
# chain 4: not shown
# B13: PL-2 (bispecific antibody)
# chain 1: not shown
# chain 2: B1 chain 2 with R112G, T113G, V114G, A115G, C136V
# chain 3: not shown
# chain 4: not shown
# B14: PL-4 (bispecific antibody)
# chain 1: not shown
# chain 2: B1 chain 2 with R112G, T113G, V114G, A115G, C136V, A142C
# chain 3: not shown
# chain 4: not shown
# B15: PL-18 (bispecific antibody)
# chain 1: not shown
# chain 2: B1 chain 2
# chain 3: not shown
# chain 4: not shown
# B16: PL-6 (bispecific antibody)
# chain 1: not shown
# chain 2: B1 chain 2 with R112G, T113G, V114G, A115G
# chain 3: not shown
# chain 4: not shown
# B17: PL-11 (bispecific antibody)
# chain 1: not shown
# chain 2: B1 chain 2 with C136V
# chain 3: not shown
# chain 4: not shown
# B18: PL-13 (bispecific antibody)
# chain 1: not shown
# chain 2: B1 chain 2 with C136V, A142C
# chain 3: not shown
# chain 4: not shown
# B19: 2-F2 (bispecific antibody)
# heavy 1: not shown
# light 1: EIVLTQSPDFQSVTPKEKVTITCSASSSVSHMYWYQQKPDQSPKLLIYRTSNLASGVPSRFSGSGSGTDFTLTINSLEAEDAATYYCQQYHSYPLMFGQGTKLEIKRTVAAPSVFIFPPSDEQLKSGTASVVCLLNNFYPREAKVQWKVDNALQSGNSQESVTEQDSKDSTYSLSSTLTLSKADYEKHKVYACEVTHQGLSSPVTKSFNRGEC
# heavy 2: not shown
# light 2: not shown
# B20: Chi13 (antibody, human IgG1, kappa, V domains shown)
# VH: QVQLKESGPGLVAPSQSLSITCTVSGFSLTNYAISWVRQPPGKGLEWLGVIWTGGGTHYNSALKSRLSISKDNSKSQVFLKMNSLQTDDTARYYCARKGNYYGSSLYYYAMNYWGQGTSVTVSS
# VL: DIQMTQTTSSLSASLGDRVTISCRASQDISNYLNWYQQKPDGTVKLLIYYTSRLQSGVPSRFSGSGSGTDYSLSISNLEQEDIATYFCQQGDTLPYTFGGGTKLEIRT
# notes: chimeric antibody, hIgG1/kappa
# B21: hu71H3L2 (antibody, human IgG1, kappa)
# heavy: not shown
# light: DVVVTQTPLSLPVTPGEPASISCRSSQSLVHSYGNTYLHWYLQKPGQSPQLLIYKVSNRFSGVPDRFSGSGSGTDFTLKISRVEAEDVGVYYCSQTTHVPWTFGGGTKVEIKRTVAAPSVFIFPPSDEQLKSGTASVVCLLNNFYPREAKVQWKVDNALQSGNSQESVTEQDSKDSTYSLSSTLTLSKADYEKHKVYACEVTHQGLSSPVTKSFNRGEC
# notes: also called hu71L2H3
# B22: hu50H1L2 (antibody, human IgG1, kappa)
# heavy: not shown
# light: DVFMTQSPLSLPVTPGEPASISCRSSQSILHSNGNTYLEWYLQKPGQSPQLLIYRVSNRFSGVPDRFSGSGSGTDFTLKISRVEAEDVGVYYCFQGLHVPPTFGQGTKLEIKRTVAAPSVFIFPPSDEQLKSGTASVVCLLNNFYPREAKVQWKVDNALQSGNSQESVTEQDSKDSTYSLSSTLTLSKADYEKHKVYACEVTHQGLSSPVTKSFNRGEC
# notes: also called hu50L2H1
# B23: hu13H2L2 (antibody, human IgG1, kappa, V domains shown)
# VH: EVTLKESGPVLVKPTETLTLTCTVSGFSLSNYAISWIRQPPGKALEWLGVIWTGGGTHYNSALKSRLTISKDTSKSQVVLTMTNMDPVDTARYYCARKGNYYGSSLYYYAMNYWGQGTTVTVSS
# VL: DIQMTQSPSSLSASVGDRVTITCRASQDISNYLNWYQQKPDGAPKLLIYYTSRLQSGVPSRFSGSGSGTDYTLTISSLQPEDFATYYCQQGDTLPYTFGGGTKVEIKR
# B24: hu13H3L1 (antibody, human IgG1, kappa, V domains shown)
# VH: B23 VH with S30T, A44G, T73N
# VL: B23 VL with D41G, G42K, Y71F
# B25: hu13H2L1 (antibody, human IgG1, kappa, V domains shown)
# VH: B23 VH
# VL: B23 VL with D41G, G42K, Y71F
# B26: hu13H3L3 (antibody, human IgG1, kappa, V domains shown)
# VH: B23 VH with S30T, A44G, T73N
# VL: B23 VL with A43T, P44V
# B27: hu13H2L3 (antibody, human IgG1, kappa, V domains shown)
# VH: B23 VH
# VL: B23 VL with A43T, P44V
# B28: hu13H1L2 (antibody, human IgG1, kappa, V domains shown)
# VH: B23 VH with G49A, R92T
# VL: B23 VL
# B29: hu13H1L1 (antibody, human IgG1, kappa, V domains shown)
# VH: B23 VH with G49A, R92T
# VL: B23 VL with D41G, G42K, Y71F
# B30: hu13H1L3 (antibody, human IgG1, kappa, V domains shown)
# VH: B23 VH with G49A, R92T
# VL: B23 VL with A43T, P44V
# B31: hu13H3L2 (antibody, human IgG1, kappa, V domains shown)
# VH: B23 VH with S30T, A44G, T73N
# VL: B23 VL
# Target: hPDL1 (human, UniProt Q9NZQ7 19-238)
# Assay: ELISA
# Chain of hPDL1 (Q9NZQ7 19-238 limits assumed): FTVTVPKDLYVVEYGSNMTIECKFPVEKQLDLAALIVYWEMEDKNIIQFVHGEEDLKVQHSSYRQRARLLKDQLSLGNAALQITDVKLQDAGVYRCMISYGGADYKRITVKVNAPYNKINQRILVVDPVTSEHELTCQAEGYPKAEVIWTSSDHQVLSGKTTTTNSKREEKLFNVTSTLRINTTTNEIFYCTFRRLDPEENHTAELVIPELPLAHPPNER
row,EC50,Binder
1,0.5 nM,B1
2,1.3 nM,B2
3,0.6 nM,B3
4,0.6 nM,B4
5,1.4 nM,B5
6,1.4 nM,B6
7,1.6 nM,B7
8,1.6 nM,B8
9,0.5 nM,B9
10,1.4 nM,B10
11,0.7 nM,B11
12,0.6 nM,B12
13,0.5 nM,B13
14,0.7 nM,B14
15,1.6 nM,B15
16,0.8 nM,B16
17,0.6 nM,B17
18,0.5 nM,B18

# Target: hCTLA4 (human, UniProt P16410 36-161)
# Assay: ELISA
# Chain of hCTLA4 (P16410 36-161 limits assumed): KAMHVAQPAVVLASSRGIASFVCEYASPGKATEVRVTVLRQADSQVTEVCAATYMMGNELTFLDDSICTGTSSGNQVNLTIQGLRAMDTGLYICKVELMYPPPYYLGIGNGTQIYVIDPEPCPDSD
row,EC50,Binder
1,8 nM,B1
2,6 nM,B2
3,5.5 nM,B3
4,6.9 nM,B4
5,14.5 nM,B5
6,3.2 nM,B6
7,16.5 nM,B7
8,6.5 nM,B8
9,7.3 nM,B9
10,6.2 nM,B10
11,6.7 nM,B11
12,7.9 nM,B12
13,8 nM,B13
14,6.5 nM,B14
15,6.7 nM,B15
16,5.3 nM,B16
17,5.6 nM,B17
18,4.4 nM,B18

# Target: T1, human PSMA on cells (Cho-hPSMA, CHO-K1 cells overexpressing full-length human PSMA) (human, UniProt Q04609 1-750)
# Assay: cell-based or functional assay
# T1 sequence (Q04609 whole entry): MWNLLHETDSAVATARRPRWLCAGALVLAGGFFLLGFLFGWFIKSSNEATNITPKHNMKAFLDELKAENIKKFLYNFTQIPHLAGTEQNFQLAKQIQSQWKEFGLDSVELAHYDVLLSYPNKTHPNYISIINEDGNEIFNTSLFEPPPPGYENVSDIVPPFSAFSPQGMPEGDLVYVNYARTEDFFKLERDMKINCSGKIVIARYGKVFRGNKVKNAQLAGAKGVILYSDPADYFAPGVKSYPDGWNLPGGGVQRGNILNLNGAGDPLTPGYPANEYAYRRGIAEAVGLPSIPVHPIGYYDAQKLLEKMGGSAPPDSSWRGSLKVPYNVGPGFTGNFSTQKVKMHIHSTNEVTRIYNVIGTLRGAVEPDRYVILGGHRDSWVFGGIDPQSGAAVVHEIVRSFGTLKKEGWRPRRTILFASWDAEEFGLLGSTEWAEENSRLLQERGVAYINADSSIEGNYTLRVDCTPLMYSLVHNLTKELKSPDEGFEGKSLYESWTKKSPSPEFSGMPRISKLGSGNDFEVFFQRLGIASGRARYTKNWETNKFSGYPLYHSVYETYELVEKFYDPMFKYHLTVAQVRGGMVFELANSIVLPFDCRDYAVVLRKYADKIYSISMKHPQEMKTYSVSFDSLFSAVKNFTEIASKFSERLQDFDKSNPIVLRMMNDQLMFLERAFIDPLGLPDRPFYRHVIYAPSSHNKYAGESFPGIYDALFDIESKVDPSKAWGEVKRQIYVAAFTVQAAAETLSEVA
Binder,"cytotoxic activity against Lncap, EC50 (LDH release, PBMC E:T 10:1, 48 h)","cytotoxic activity against Lncap, Maximum lysis rate %"
B19,0.0084 nM,48.7%

# Target: T2, human PSMA antigen (R&D SYSTEM, 4234-ZN-010) (human, UniProt Q04609 44-750)
# T2 construct: bought antigen
# Assay: ELISA, plate-bound PSMA antigen
# Protocol: To test the ability of the PSMA-targeting humanized antibodies of the present disclosure to bind to PSMA antigen, the ELISA method was used in this test example to measure the binding of the PSMA-targeting humanized antibodies to human PSMA antigen (purchased from R&D SYSTEM, 4234-ZN-010). The specific steps are as follows: A 96-well plate was coated with PSMA antigen at 1 μg/well and placed at 4° C. overnight. After the supernatant was discarded, the plate was blocked with 5% skim milk for 2 h. Different concentrations of humanized antibodies were prepared using 1% BSA. The initial concentration was 10 μg/mL and was serially diluted 4-fold to obtain 12 concentrations. After the blocked 96-well plate was washed twice, the […] was added, and the plate was incubated at 4° C. for 1 h. After four washes, the plate was incubated with Strepidation-HRP secondary antibody (1:10,000) at 4° C. for 1 h. After color development with TMB, the reaction was stopped with 0.1 M sulfuric acid.
# T2 sequence (Q04609 44-750 limits assumed): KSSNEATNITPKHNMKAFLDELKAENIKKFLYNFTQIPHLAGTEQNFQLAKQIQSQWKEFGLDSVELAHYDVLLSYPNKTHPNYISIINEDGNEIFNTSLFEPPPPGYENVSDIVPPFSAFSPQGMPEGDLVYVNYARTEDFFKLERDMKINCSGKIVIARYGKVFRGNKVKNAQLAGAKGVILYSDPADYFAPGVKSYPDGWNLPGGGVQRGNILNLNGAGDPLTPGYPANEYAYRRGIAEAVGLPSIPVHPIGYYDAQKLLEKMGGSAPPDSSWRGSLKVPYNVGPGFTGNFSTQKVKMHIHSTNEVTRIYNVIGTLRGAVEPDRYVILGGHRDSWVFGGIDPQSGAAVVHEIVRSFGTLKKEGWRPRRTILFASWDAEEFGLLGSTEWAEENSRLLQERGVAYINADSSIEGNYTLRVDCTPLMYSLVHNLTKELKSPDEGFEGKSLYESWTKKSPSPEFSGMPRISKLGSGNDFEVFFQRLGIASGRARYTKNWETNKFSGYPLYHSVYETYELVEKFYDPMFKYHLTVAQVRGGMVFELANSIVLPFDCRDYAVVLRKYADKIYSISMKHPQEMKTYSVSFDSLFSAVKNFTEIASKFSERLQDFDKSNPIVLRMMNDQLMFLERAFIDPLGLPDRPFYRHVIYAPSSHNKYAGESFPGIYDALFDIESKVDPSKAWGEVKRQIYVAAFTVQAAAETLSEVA
EC50,Top (maximum absorbance),Binder
0.0409 µg/mL,2.11 absorbance,B20
0.0589 µg/mL,0.952 absorbance,B21
0.0421 µg/mL,1.3 absorbance,B22

# Target: T1, human PSMA on cells (Cho-hPSMA, CHO-K1 …)
# Assay: flow cytometry, Cho-hPSMA cells
# Protocol: The binding activity of antibodies to the stably transfected cell strain Cho-hPSMA, which overexpresses human PSMA, was measured by flow cytometry in this test example. The full-length gene encoding human PSMA was cloned into the mammalian cell expression vector pCDH. HEK293T cells (ATCC® CRL-11268) were co-transfected with three plasmids-pVSV-G, pCMV-dR8.91, and pCDH-human PSMA- to package viruses. After 48 h of transfection, viruses were collected to infect CHO-K1 cells.
# Experiment 1: Cho-hPSMA was cultured in F12 medium with 10% FBS. The medium to which cells were inoculated was incubated in a 37° C., 5% CO₂ incubator for 2 days, and cells were added to a cell plate at 1×10⁵ cells/well and washed by centrifugation. Antibodies were serially diluted, and the antibody solutions were added to the cell plate at 100 μL/well. The plate was incubated at 4° C. for 1 h and then washed. An AF488-Goat Anti-human IgG Fc fluorescent secondary antibody dilution (1:400) was added to the cell plate at 100 μL/well, and the plate was incubated at 4° C. for 1 h and then washed. PBS was added to the cell plate at 100 μL/well before plate reading.
row,EC50,Binder
1,1.21 µg/mL,B20
2,1.09 µg/mL,B23
3,1.05 µg/mL,B24
4,1.05 µg/mL,B25
5,1.5 µg/mL,B26
6,1.14 µg/mL,B27
7,0.981 µg/mL,B28
8,0.947 µg/mL,B29
9,1.01 µg/mL,B30
10,1.1 µg/mL,B31

# Target: T1, human PSMA on cells (Cho-hPSMA, CHO-K1 …)
# Assay: cell ELISA (OD450), Cho-hPSMA cells
# Protocol: Experiment 2: Cells were cultured and inoculated onto a cell plate using the same method as in Experiment 1. The antibodies were serially diluted, and the antibody solutions were added to the cell plate at 100 μL/well. The plate was incubated at 4° C. for 1 h and then washed. An HRP-Goat Anti-human IgG (H+L) secondary antibody dilution (1:8000) was added to the cell plate at 100 μL/well, and the plate was incubated at 4° C. for 1 h and then washed by centrifugation. After color development with TMB, the reaction was stopped with 0.1 M sulfuric acid, and OD450 values were measured.
row,EC50,Binder
1,0.112 µg/mL,B21
2,0.0603 µg/mL,B22
